According to US12485079B2, “Compositions and methods relating to pigmentation” (Alastin Skincare, Inc., priority 2020, dated 2025):

What was measured:
[1] = system: hTERT-immortalized dermal melanocytes; assay: Melanocyte assay, daily inspection of morphology and survival (Example 6); details: both 500 and 1000 ug/mL
Method: Melanocytes were initially plated in 6-well tissue culture plate (1.5×10^3 cells per well) in melanocyte growth media (Dermal Cell Basal Medium (ATCC® PCS-200-030 supplemented with Melanocyte Growth Kit (ATCC® PCS-200-041). Melanocytes were then expanded into 10 cm tissue culture plates at concentrations recommended by ATCC. The cells appear to fully adhere to the plate/dish while culturing with a webbed morphology. Cells were cultured at 37° C. 5% CO2 incubator.
Once the melanocytes were 100% confluent in 6-well plates, the melanocyte growth media was removed and the melanocytes were treated with media containing the above compounds; duplicate wells for each compound/concentration listed above. The duplicate vehicle control wells were fed melanocyte growth media only or melanocyte growth media with DMSO (10 uL per 10 mL melanocyte growth media).
The cells were fed the appropriate media for the next 5 days. Each day, the cells were inspected for morphology.

melanogenic genes = assay: Cell line melanogenic gene activity testing, overall conclusion; assay type: cell-based, human; details: conclusion over melanocytes, keratinocytes, HUVECs
Method: (§1) Four cell types associated with pigmentation pathways-melanocytes, keratinocytes, fibroblasts and endothelial (HUVEC) cells-were analyzed for gene expression.
(§2) To simulate the UV stimulatory pigmentation pathway process, melanocytes were pre-treated with PGE2, a normal direct consequence of UV light exposure usually emanating from exposed keratinocytes. After the 48 hour attachment culture, these melanocytes were induced with 10 uM PGE2 in melanocyte media for 24 hrs. The four primary human adult dermal cell lines were cultured and plated in well plates in triplicate and then treated with 11 different compound treatments (plus DMSO control). After 48 hours of attachment culture, the remaining fibroblasts, HUVECs and keratinocytes were treated with the test compounds listed in Table 6.
(§3) After 24 hours of compound exposure, RNA lysate preparation was carried out and samples were shipped to MedGenome for RNA extraction, library construction and sequencing to 25M paired end 100 bp reads per sample. Library prep and sequencing was completed at MedGenome.

[2] = system: melanocytes (melanin production); assay: In vitro melanocyte comparative analysis via absorbance readings (Example 4); assay type: cell-based; details: for Absorbance 405 nm / Absorbance 490 nm / Absorbance 492 nm: melanocyte lysates, 4 days
Method: Melanocytes were cultured in 6-well plates containing growth media. Once confluent, 2 concentrations of each of the 10 compounds were added to the cells in triplicate wells for 4 days. There were a total of eleven 6-well plates, one for each compound treatment and one for the vehicle control. Absorbance readings were taken on the lysates prepared for each well of the 6-well plates, normalizing for cells counts. […] Additional validation was carried out using MSH addition to media to confirm increased stimulation of melanin production. The following compounds used in this study are seen in Table 7.

[3] = system: melanogenic genes in melanocytes; assay: Gene expression study (RNA sequencing) in PGE2-induced melanocytes; assay type: cell-based, human
Method: as §1, §2, §3

[4] = system: hTERT-immortalized dermal melanocytes; assay: Melanocyte assay, absorbance of lysate pellets (Example 6); assay type: cell-based, human; details: melanocyte lysate pellet, 5 days
Method: hTERT-immortalized dermal melanocytes were treated with various compounds.
Stocks of compounds 1 through 10 on the list below were suspended in either complete melanocyte growth media or DMSO (indicated in parentheses.) Each compound re-suspension was then diluted in melanocyte growth media to the final concentrations in Table 9.
Lysates were prepared for each sample. Briefly, 6.6×10^5 cells from each sample was spun down and collected in a vial. 150 uL of CHAPS lysis buffer was added to each duplicate sample, vortexed and placed in a dry-ice/ethanol bath for 2 minutes, then left at room temp until completed thawed. This freeze thaw was done one more time, for a total of two freeze/thaw cycles. The lysate samples were spun for 15 minutes at 14,800 rpm. The supernatant was removed, leaving a black pellet in the vial. The pellet was re-suspended in 100 uL of a 1 M NaOH/10% DMSO solution and incubated at 80° C. for 90 minutes, pipet mixing at 30 minutes, 60 minutes and at 90 minutes.
100 uL of each duplicate sample at each concentration was added to individual wells of a flat bottom 96 well plate and absorbance readings were taken at 405 nm, 490 nm and 492 nm on the Envision 2103 Multilabel Reader.

[5] = system: PMEL, tyrosinase genes, MC1/4R, EDNRB, MITF, ERK1/2, JNK, AKT1; assay: Gene expression studies of Example 5; assay type: cell-based
From the text: The methods similar to Examples 3-4 were used to measure expression of PMEL, tyrosinase genes, MC1/4R, EDNRB, MITF, ERK1/2, JNK, and ANKT1.
FIGS. 10A-10D illustrates the expression of PMEL (FIG. 10A), Tyrosinase genes (FIG. 10B), MC1/4R (FIG. 10C), and EDNRB (FIG. 10D) after treatment of endothelial cells with lactoferrin (Lacto), peptide derived from lactoferrin (TCV), hexapeptide-12 (Hex12), tripeptide-1 and hexapeptide-12 (TriHex), hexapeptide-11 (Hex11), tranexamic acid (Tran acid) octapeptide (Octa), phosphatidylserine (phos), Cannabidiol (CBD), and all (total).
MITF is regulated by phosphorylation. Specifically, the MAPK and Akt pathways are known to phosphorylate MITF at certain sites. FIGS. 12A-12C illustrate the expression of ERK1/2 (MAPK3/MAPK1) (FIG. 12A), JNK (FIG. 12B), AKT1 (FIG. 12C) after treatment of endothelial cells with lactoferrin (Lacto), peptide derived from lactoferrin (TCV), hexapeptide-12 (Hex12), tripeptide-1 and hexapeptide-12 (TriHex), hexapeptide-11 (Hex11), octapeptide (Octa), phosphatidylserine (phos), Cannabidiol (CBD), and all (total).

B1: Lactoferrin (protein, UniProt P02788 20-710, looked up)
Lactotransferrin: GRRRSVQWCAVSQPEATKCFQWQRNMRKVRGPPVSCIKRDSPIQCIQAIAENRADAVTLDGGFIYEAGLAPYKLRPVAAEVYGTERQPRTHYYAVAVVKKGGSFQLNELQGLKSCHTGLRRTAGWNVPIGTLRPFLNWTGPPEPIEAAVARFFSASCVPGADKGQFPNLCRLCAGTGENKCAFSSQEPYFSYSGAFKCLRDGAGDVAFIRESTVFEDLSDEAERDEYELLCPDNTRKPVDKFKDCHLARVPSHAVVARSVNGKEDAIWNLLRQAQEKFGKDKSPKFQLFGSPSGQKDLLFKDSAIGFSRVPPRIDSGLYLGSGYFTAIQNLRKSEEEVAARRARVVWCAVGEQELRKCNQWSGLSEGSVTCSSASTTEDCIALVLKGEADAMSLDGGYVYTAGKCGLVPVLAENYKSQQSSDPDPNCVDRPVEGYLAVAVVRRSDTSLTWNSVKGKKSCHTAVDRTAGWNIPMGLLFNQTGSCKFDEYFSQSCAPGSDPRSNLCALCIGDEQGENKCVPNSNERYYGYTGAFRCLAENAGDVAFVKDVTVLQNTDGNNNEAWAKDLKLADFALLCLDGKRKPVTEARSCHLAMAPNHAVVSRMDKVERLKQVLLHQQAKFGRNGSDCPDKFCLFQSETKNLLFNDNTECLARLHGKTTYEKYLGPQYVAGITNLKKCSTSPLLEACEFLRK
B1 was tested, and the melanocyte morphology ([1]; 24 hour post-initial dosing) was “circular morphology”, the melanocyte morphology ([1]; 48 hours post-initial dosing, maintained through the 5 day dosing period) was “returned to normal morphology” and the “effects on melanogenesis activity” value (melanogenic genes) was “significant effects on melanogenesis activity”. The “Absorbance 405 nm” value ([2]; 500 ug/uL) was 0.509, the “Absorbance 490 nm” value ([2]; 500 ug/uL) was 0.334 and the “Absorbance 492 nm” value ([2]; 500 ug/uL) was 0.217. The “Absorbance 405 nm” value ([2]; 1000 ug/uL) was 0.519, the “Absorbance 490 nm” value ([2]; 1000 ug/uL) was 0.312 and the “Absorbance 492 nm” value ([2]; 1000 ug/uL) was 0.226. The “regulation of melanogenesis (decrease of absorption = decreased melanin formation)” value ([2]; melanocytes, Table 8) was “Regulation of melanogenesis was observed”, the “melanogenic activity (FIGS. 3A-3D)” value ([3]; melanocytes pre-treated with 10 uM PGE2, 24 hours of compound exposure) was “particularly dominant in melanogenic activity” and the “expression of melanogenic genes (FIG. 4, FIG. 5)” value ([3]; melanocytes, 24 hours of compound exposure) was “downregulation of melanogenic genes”. The “Absorbance 405 nm” value ([4]; 500 ug/uL) was 0.509, the “Absorbance 490 nm” value ([4]; 500 ug/uL) was 0.334 and the “Absorbance 492 nm” value ([4]; 500 ug/uL) was 0.217. The “Absorbance 405 nm” value ([4]; 1000 ug/uL) was 0.519, the “Absorbance 490 nm” value ([4]; 1000 ug/uL) was 0.312 and the “Absorbance 492 nm” value ([4]; 1000 ug/uL) was 0.226. The “melanogenic activity (expression of PMEL, Tyrosinase genes, MC1/4R, EDNRB; FIGS. 10A-10D)” value ([5]; after treatment of endothelial cells) was “robust melanogenic activity” and the “effects on melanogenic activity (kinase expression linked to decreased MITF expression)” value ([5]; conclusion of Example 5) was “significant effects”.
